According to patent US11306156:

Tests used:
[1] = target: tissue factor (TF) antigen (UniProt P13726); assay: SPR, Fab captured on anti-penta His, TF injected, 1:1 fit
[2] = target: tissue factor (TF) antigen (UniProt P13726); assay: SPR; reference wild-type D3H44 Fab
[3] = target: tissue factor (TF) antigen (UniProt P13726); assay: SPR, Fab captured on anti-penta-His, TF as analyte, 1:1 fit
[4] = target: tissue factor (TF) antigen (UniProt P13726); assay: SPR (ProteOn XPR36), Fab captured on anti-penta-His, TF injected, 1:1 fit; batch C (+)
[5] = target: tissue factor (TF) antigen (UniProt P13726); assay: SPR, against wild-type D3H44 Fab; batch C (+)
[6] = target: tissue factor (TF) antigen (UniProt P13726); assay: SPR (ProteOn XPR36), Fab captured on anti-penta His surface, TF injected as analyte, 1:1 model
[7] = target: tissue factor (TF) antigen (UniProt P13726); assay: SPR, same assay; reference wild-type D3H44 Fab
[8] = target: tissue factor (TF) antigen (UniProt P13726); assay: SPR (ProteOn), Fab captured on anti-penta-His surface, TF injected, 1:1 fit
[9] = target: tissue factor (TF) antigen (UniProt P13726); assay: SPR (ProteOn), Fab captured on anti-penta-His surface, TF injected; reference wild-type D3H44 Fab
[10] = target: tissue factor (TF) antigen (UniProt P13726); assay: SPR (ProteOn XPR36), His-tagged Fab captured on anti-penta His, TF as analyte, 1:1 fit
[11] = target: tissue factor (TF) antigen (UniProt P13726); assay: SPR (ProteOn XPR36): His-tagged Fab captured on anti-penta-His surface, TF as analyte, 1:1 fit

tissue factor (TF) antigen, sequence (P13726 33-251 limits assumed): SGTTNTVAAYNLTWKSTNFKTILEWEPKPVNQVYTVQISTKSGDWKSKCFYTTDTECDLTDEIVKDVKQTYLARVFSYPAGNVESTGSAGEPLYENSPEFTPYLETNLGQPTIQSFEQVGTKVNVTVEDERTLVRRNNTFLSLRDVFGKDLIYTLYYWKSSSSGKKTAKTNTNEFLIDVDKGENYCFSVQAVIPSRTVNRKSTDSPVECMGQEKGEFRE

With “D3H44 Fab heterodimer, H L124R_Q179K / L Q124E_V133G_S176D_T178E_T180E” as the substance, how does the Kd [1] read?
The Kd was 0.22 nM.

What about the Change in KD with respect to wild type (-(log(KD design) - log(KD wt))) [2] of the same substance?
The Change in KD with respect to wild type (-(log(KD design) - log(KD wt))) was -0.15.

And the Change in KD with respect to wild type (-(log(KD design) - log(KD wt))) [3]?
The Change in KD with respect to wild type (-(log(KD design) - log(KD wt))) was -0.15.

And the Kd [3]?
Its Kd is 0.22 nM.

“H1L1 Fab heterodimer of LCCA Set # 9779 and 9780 (D3H44 Fab; H1 Q179K, L1 Q124E_S131T_T178Y_T180E)” was tested. Which Kd [4] did it give?
The Kd was 0.16 nM.

And the Change in median values of KD of h1l1 Fab heterodimer compared to wild type (-(log(KD design)-log(KD wt))) [5]?
Its Change in median values of KD of h1l1 Fab heterodimer compared to wild type (-(log(KD design)-log(KD wt))) is -0.01.

How did the Kd [6] turn out when “H1L1 Fab heterodimer of LCCA set 9351 (D3H44 Fab, H1 L124R_D146N_Q179K, L1 Q124E_V133G_S176D_T178E_T180E)” was run?
The Kd was 0.2 nM.

And the change in median KD of H1L1 Fab heterodimer compared to wild type (-(log(KD design)-log(KD wt))) [7]?
Its change in median KD of H1L1 Fab heterodimer compared to wild type (-(log(KD design)-log(KD wt))) is -0.1.

What does the source list for “H1L1 Fab heterodimer of LCCA set 9260 (D3H44 Fab, H1 L124E_L143E_K145M, L1 Q124K_V133G_S176R_T178K)”?
Kd [6]: 0.24 nM; change in median KD of H1L1 Fab heterodimer compared to wild type (-(log(KD design)-log(KD wt))) [7]: -0.19

For “D3H44 H1L1 Fab heterodimer of LCCA Sets # 9349 and 9348 (H1 L124R_A139G_V190A; L1 V133G_L135W_S176D)”, which Kd [8] is on record?
The Kd was 0.15 nM.

And the Change in median values of KD of h1l1 Fab heterodimer compared to wild type (-(log(KD design)-log(KD wt))) [9]?
The Change in median values of KD of h1l1 Fab heterodimer compared to wild type (-(log(KD design)-log(KD wt))) was 0.03.

For “H1L1 Fab heterodimer of LCCA set 9225 (D3H44 Fab, H1 L124E_L143D_K145T, L1 Q124K_V133G_S176R_T178R)”, which Kd [6] is on record?
The Kd was 0.16 nM.

And the change in median KD of H1L1 Fab heterodimer compared to wild type (-(log(KD design)-log(KD wt))) [7]?
Its change in median KD of H1L1 Fab heterodimer compared to wild type (-(log(KD design)-log(KD wt))) is -0.02.

Which results are given for “H1L1 Fab heterodimer of LCCA set 9269 (D3H44 Fab, H1 L124E_L143E_K145M, L1 Q124K_V133G_S176R_T178R)”?
Kd [6]: 0.31 nM; change in median KD of H1L1 Fab heterodimer compared to wild type (-(log(KD design)-log(KD wt))) [7]: -0.29

With “D3H44 Fab heterodimer, H L124R_Q179K / L V133G_Q160E_S176D_T180E” as the substance, how does the Kd [1] read?
The Kd was 0.19 nM.

And the Change in KD with respect to wild type (-(log(KD design) - log(KD wt))) [2]?
Its Change in KD with respect to wild type (-(log(KD design) - log(KD wt))) is -0.08.

How did the Kd [1] turn out when “D3H44 Fab heterodimer, H L124R_D146N_Q179K / L V133G_S176D_T178E_T180E” was run?
The Kd was 0.16 nM.

What about the Change in KD with respect to wild type (-(log(KD design) - log(KD wt))) [2] of the same substance?
The Change in KD with respect to wild type (-(log(KD design) - log(KD wt))) was -0.01.

With “D3H44 Fab heterodimer, H1 A139C_C233S / L1 F116C_C214S (H1L1 Fab of LCCA Set # 9041)” as the substance, how does the Kd [10] read?
The Kd was 0.14 nM.

How did the Kd [6] turn out when “H1L1 Fab heterodimer of LCCA set 9358 (D3H44 Fab, H1 L124R_D146N_Q179K, L1 V133G_S176D_T178E)” was run?
Its Kd is 0.18 nM.

What about the change in median KD of H1L1 Fab heterodimer compared to wild type (-(log(KD design)-log(KD wt))) [7] of the same substance?
The change in median KD of H1L1 Fab heterodimer compared to wild type (-(log(KD design)-log(KD wt))) was -0.07.

What does the source list for “D3H44 H1L1 Fab heterodimer of LCCA Sets # 9505 and 9503 (H1 L124R_S186R; L1 Q124E_V133G_S176D_T178D_T180E)”?
Kd [8]: 0.26 nM; Change in median values of KD of h1l1 Fab heterodimer compared to wild type (-(log(KD design)-log(KD wt))) [9]: -0.21

“H1L1 Fab heterodimer of LCCA set 9516 (D3H44 Fab, H1 L124R_S186R, L1 Q124E_V133G_S176D_T178D_T180E)” was tested. Which Kd [6] did it give?
Its Kd is 0.26 nM.

And the change in median KD of H1L1 Fab heterodimer compared to wild type (-(log(KD design)-log(KD wt))) [7]?
The change in median KD of H1L1 Fab heterodimer compared to wild type (-(log(KD design)-log(KD wt))) was -0.21.

For “H1L1 Fab heterodimer of LCCA set 9359 (D3H44 Fab, H1 L124R_D146N_Q179K, L1 V133G_S176D_T178E_T180E)”, which Kd [6] is on record?
The Kd was 0.16 nM.

And the change in median KD of H1L1 Fab heterodimer compared to wild type (-(log(KD design)-log(KD wt))) [7]?
Its change in median KD of H1L1 Fab heterodimer compared to wild type (-(log(KD design)-log(KD wt))) is -0.01.

With “D3H44 Fab heterodimer, H L124R_S186R / L Q124E_V133G_S176D_T178D_T180E” as the substance, how does the Kd [1] read?
Its Kd is 0.26 nM.

What about the Change in KD with respect to wild type (-(log(KD design) - log(KD wt))) [2] of the same substance?
Its Change in KD with respect to wild type (-(log(KD design) - log(KD wt))) is -0.21.

What about the Change in KD with respect to wild type (-(log(KD design) - log(KD wt))) [3] of the same substance?
Its Change in KD with respect to wild type (-(log(KD design) - log(KD wt))) is -0.21.

And the Kd [3]?
The Kd was 0.26 nM.

How did the Kd [8] turn out when “D3H44 H1L1 Fab heterodimer of LCCA Sets # 9521 and 9520 (H1 L124R_S186R; L1 V133G_S176D_T178D)” was run?
Its Kd is 0.2 nM.

And the Change in median values of KD of h1l1 Fab heterodimer compared to wild type (-(log(KD design)-log(KD wt))) [9]?
Its Change in median values of KD of h1l1 Fab heterodimer compared to wild type (-(log(KD design)-log(KD wt))) is -0.1.

Which results are given for “H1L1 Fab heterodimer of LCCA set 9354 (D3H44 Fab, H1 L124R_D146N_Q179K, L1 V133G_Q160E_S176D_T180E)”?
Kd [6]: 0.17 nM; change in median KD of H1L1 Fab heterodimer compared to wild type (-(log(KD design)-log(KD wt))) [7]: -0.04

Which Kd [8] does the source give for “D3H44 H1L1 Fab heterodimer of LCCA Sets # 9176, 9178 and 9179 (H1 L124E_L143D_K145M; L1 Q124K_V133G_S176R_T178K)” here?
Its Kd is 0.22 nM.

What about the Change in median values of KD of h1l1 Fab heterodimer compared to wild type (-(log(KD design)-log(KD wt))) [9] of the same substance?
Its Change in median values of KD of h1l1 Fab heterodimer compared to wild type (-(log(KD design)-log(KD wt))) is -0.15.

Which Change in median values of KD of h1|1 Fab heterodimer compared to wild type (-(log(KD design)-log(KD wt))) [11] does the source give for “D3H44 H1L1 Fab heterodimer of LCCA set 9082 (H1 K145T_Q179E; L1 S131K)” here?
The Change in median values of KD of h1|1 Fab heterodimer compared to wild type (-(log(KD design)-log(KD wt))) was -0.01 log units.

What about the Kd [11] of the same substance?
Its Kd is 0.16 nM.

With “D3H44 Fab heterodimer, H L124R_D146N_Q179K / L V133G_Q160E_S176D_T180E” as the substance, how does the Kd [1] read?
The Kd was 0.17 nM.

And the Change in KD with respect to wild type (-(log(KD design) - log(KD wt))) [2]?
The Change in KD with respect to wild type (-(log(KD design) - log(KD wt))) was -0.04.
